How the values were obtained:
[1] = biological target: human TNFR1 (soluble recombinant protein) (human) (UniProt P19438); test: phage ELISA, plate coated with 1 nM TNFRI, anti-M13-HRP; phage pre-treated 1 h room temp with 100 ug/ml trypsin; phage input 1.13E+10
[2] = biological target: human TNFR1 (soluble recombinant protein) (human) (UniProt P19438); test: phage ELISA, plate coated with 1 nM TNFRI, anti-M13-HRP; phage pre-treated 1 h room temp with 1 mg/ml trypsin; phage input 1.13E+10
[3] = biological target: human TNFR1 (soluble recombinant protein) (human) (UniProt P19438); test: phage ELISA, plate coated with 1 nM TNFRI, anti-M13-HRP; phage pre-treated 1 h room temp with 10 ug/ml trypsin; phage input 1.13E+10

Sequence of human TNFR1 (soluble recombinant protein) (human) (P19438 41-201 limits assumed): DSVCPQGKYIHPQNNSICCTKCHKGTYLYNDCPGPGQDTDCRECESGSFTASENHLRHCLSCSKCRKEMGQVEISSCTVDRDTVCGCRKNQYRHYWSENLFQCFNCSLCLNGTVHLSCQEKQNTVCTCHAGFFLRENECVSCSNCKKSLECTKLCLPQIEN

phage ELISA signal (read-out not named) [1]: 0.284
phage ELISA signal (read-out not named) [2]: 0.183
phage ELISA signal (read-out not named) [3]: 0.86
Substance: DOM1h-131
